Source: US20180057604A1 (Genentech, published 2018)
Substitutions are numbered along the chain they refer to. Names and notes keep the numbering of the source.

B1: 5903 (antibody, V domains shown)
VH: QLQLQESGPGLVKPSETLSLTCTVSGGSISSSSYYWGWIRQPPGKGLEWIGMIYYSGSTWYNPSLKSRVTISVDTSKNQFSLKLSSVTAADTAVYYCARVGHGISYFDLWGRGTLVTVSS
VL: EIVLTQSPATLSLSPGERATLSCRASQSVSSYLAWYQQKPGQAPRLLIYDASKRATGIPARFSGSGSGTDFTLTISSLEPEDFAVYYCQQVYTWPPRTFGGGTKVEIK
B2: D101A (antibody, V domains shown)
VH: EVQLVQSGAEVKKPGASVKVSCKGSGYTFTDYAMHWVRQAPGQGLEWMGGISTYFGRTNYNQKFKGRVTMTVDTSISTAYMELSRLRSDDTAVYYCARGLSGNYVMAYWGQGTTVTVSS
VL: DIVMTQSPDSLAVSLGERATINCRASESVDSYGNSFMHWYQQKPGQPPKLLIYRASNLESGVPDRFSGSGSRTDFTLTISSLQAEDVAVYYCQQSNEAPPTFGQGTKLEIK
notes: also called 7A4.v15 D101A (CDR-H3) IgG; copies: 2 + 2
B3: E93A (antibody, V domains shown)
VH: B2 VH with A107D
VL: B2 VL with E97A
notes: also called 7A4.v15 E93A (CDR-L3) IgG
B4: T97A (antibody, V domains shown)
VH: B2 VH with A107D
VL: B2 VL with T101A
notes: also called 7A4.v15 T97A (CDR-L3) IgG
B5: G98A (antibody, V domains shown)
VH: B2 VH with G102A, A107D
VL: B2 VL
notes: also called 7A4.v15 G98A (CDR-H3) IgG; copies: 2 + 2
B6: M100bA (antibody, V domains shown)
VH: B2 VH with M106A, A107D
VL: B2 VL
notes: also called 7A4.v15 M100bA (CDR-H3) IgG; copies: 2 + 2
B7: L96A (antibody, V domains shown)
VH: B2 VH with L100A, A107D
VL: B2 VL
notes: also called 7A4.v15 L96A (CDR-H3) IgG; copies: 2 + 2
B8: Y100A (antibody, V domains shown)
VH: B2 VH with Y104A, A107D
VL: B2 VL
notes: also called 7A4.v15 Y100A (CDR-H3) IgG; copies: 2 + 2
B9: P96A (antibody, V domains shown)
VH: B2 VH with A107D
VL: B2 VL with P100A
notes: also called 7A4.v15 P96A (CDR-L3) IgG
B10: G95A (antibody, V domains shown)
VH: B2 VH with G99A, A107D
VL: B2 VL
notes: also called 7A4.v15 G95A (CDR-H3) IgG; copies: 2 + 2
B11: P95A (antibody, V domains shown)
VH: B2 VH with A107D
VL: B2 VL with P99A
notes: also called 7A4.v15 P95A (CDR-L3) IgG
B12: Y102A (antibody, V domains shown)
VH: B2 VH with A107D, Y108A
VL: B2 VL
notes: also called 7A4.v15 Y102A (CDR-H3) IgG; copies: 2 + 2
B13: S91A (antibody, V domains shown)
VH: B2 VH with A107D
VL: B2 VL with S95A
notes: also called 7A4.v15 S91A (CDR-L3) IgG
B14: Q89A (antibody, V domains shown)
VH: B2 VH with A107D
VL: B2 VL with Q93A
notes: also called 7A4.v15 Q89A (CDR-L3) IgG
B15: N92A (antibody, V domains shown)
VH: B2 VH with A107D
VL: B2 VL with N96A
notes: also called 7A4.v15 N92A (CDR-L3) IgG
B16: Hu7A4.v12.Fab (Fab, V domains shown)
VH: B2 VH with A107D
VL: B2 VL with A98G
notes: Fab
B17: Hu7A4.v9.Fab (Fab, V domains shown)
VH: B2 VH with G24A, V72R, A107D
VL: B2 VL with A98G
notes: Fab
B18: Hu15G11.v3.Fab (Fab, V domains shown)
VH: EVQLVQSGAEVKKPGASVKVSCKASGYTFTSYWMHWVRQAPGQRLEWMGEINPTNGRTNYIEKFKSRVTITRDTSASTAYMELSSLRSEDTAVYYCARGTRAYHYWGQGTMVTVSS
VL: DIQMTQSPSSLSASVGDRVTITCRASDNLYSNLAWYQQKPGKSPKLLVYDATNLADGVPSRFSGSGSGTDYTLTISSLQPEDFATYYCQHFWGTPLTFGQGTKVEIK
notes: Fab
B19: 5532 (antibody, V domains shown)
VH: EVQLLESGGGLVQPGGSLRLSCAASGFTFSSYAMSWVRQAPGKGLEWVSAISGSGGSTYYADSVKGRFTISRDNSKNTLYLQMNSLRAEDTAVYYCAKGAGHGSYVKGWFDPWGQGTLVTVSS
VL: EIVLTQSPATLSLSPGERATLSCRASQSVSSYLAWYQQKPGQAPRLLIYDASNRATGIPARFSGSGSGTDFTLTISSLEPEDFAVYYCQQSSNFPFTFGGGTKVEIK
notes: anti-BACE1 IgG
B20: 5583 (antibody, V domains shown)
VH: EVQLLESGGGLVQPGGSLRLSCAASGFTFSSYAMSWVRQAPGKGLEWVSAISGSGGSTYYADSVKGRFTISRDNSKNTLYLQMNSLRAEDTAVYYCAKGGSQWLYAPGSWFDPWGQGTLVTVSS
VL: B19 VL with Q89V, S91R, F96W
notes: anti-BACE1 IgG
B21: 5592 (antibody, V domains shown)
VH: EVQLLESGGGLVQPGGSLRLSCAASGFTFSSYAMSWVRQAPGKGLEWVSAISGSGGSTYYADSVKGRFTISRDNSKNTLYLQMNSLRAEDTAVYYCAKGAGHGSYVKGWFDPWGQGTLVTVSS
VL: B19 VL with S92V
notes: anti-BACE1 IgG
B22: 5983 (antibody, V domains shown)
VH: B1 VH with M52N, W60Y, K66R, S81F, V100L, I104Y, S105N
VL: B1 VL with Y36F, K53N, T93V
notes: anti-BACE1 IgG

Each binder was assayed against T1, BACE1 (HTRF long substrate and FRET short substrate assays of Example 9D) (assay: cell-based or functional assay).

Binder	EC50, FRET short substrate [µM]	EC50, HTRF long substrate [µM]
B1	0.00312	0.00138

Each binder was assayed against T2, human TfR extracellular domain with N-terminal His tag (human, UniProt P02786 89-760) (assay: ELISA, IgG;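 note: ELISA of IgG-containing supernatants tested in 1:5 serial dilutions for 1 h, bound antibody read out with HRP anti-kappa antibody and TMB substrate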).
T2 construct: Biotinylated in some assays; also called huTfR; HuTfR
T2 sequence (P02786 89-760 G142S): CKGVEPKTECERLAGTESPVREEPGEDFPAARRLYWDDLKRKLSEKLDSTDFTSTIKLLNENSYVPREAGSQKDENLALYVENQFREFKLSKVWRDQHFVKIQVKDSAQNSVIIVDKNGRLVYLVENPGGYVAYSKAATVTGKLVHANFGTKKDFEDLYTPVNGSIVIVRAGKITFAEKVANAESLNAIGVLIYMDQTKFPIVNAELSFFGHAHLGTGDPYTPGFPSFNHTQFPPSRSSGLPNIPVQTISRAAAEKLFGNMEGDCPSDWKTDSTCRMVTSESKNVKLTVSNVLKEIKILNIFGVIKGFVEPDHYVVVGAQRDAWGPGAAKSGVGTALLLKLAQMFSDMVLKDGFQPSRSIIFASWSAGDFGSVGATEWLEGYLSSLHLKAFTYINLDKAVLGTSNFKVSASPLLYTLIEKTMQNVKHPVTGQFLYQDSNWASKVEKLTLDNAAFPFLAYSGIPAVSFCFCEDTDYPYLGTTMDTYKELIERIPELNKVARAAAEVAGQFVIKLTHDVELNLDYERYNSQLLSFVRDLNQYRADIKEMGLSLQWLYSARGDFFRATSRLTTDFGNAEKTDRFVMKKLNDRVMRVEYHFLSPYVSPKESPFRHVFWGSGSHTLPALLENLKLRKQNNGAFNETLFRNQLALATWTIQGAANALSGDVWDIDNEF

Binder	EC50 [mg/L]
B2	0.0173
B3	0.0122
B4	0.012
B5	0.0194
B6	0.0161
B7	0.0155
B8	0.0159
B9	0.01
B10	0.0135
B11	0.0097
B12	0.0126
B13	0.0113
B14	0.0109
B15	0.0087

Biological target: T3, cyno TfR extracellular domain (analogous construct to human TfR ecd) (cynomolgus monkey, UniProt Q5RDH6 87-760 (Pongo abelii entry))
T3 construct: also called cynoTfR ecd
T3 chain: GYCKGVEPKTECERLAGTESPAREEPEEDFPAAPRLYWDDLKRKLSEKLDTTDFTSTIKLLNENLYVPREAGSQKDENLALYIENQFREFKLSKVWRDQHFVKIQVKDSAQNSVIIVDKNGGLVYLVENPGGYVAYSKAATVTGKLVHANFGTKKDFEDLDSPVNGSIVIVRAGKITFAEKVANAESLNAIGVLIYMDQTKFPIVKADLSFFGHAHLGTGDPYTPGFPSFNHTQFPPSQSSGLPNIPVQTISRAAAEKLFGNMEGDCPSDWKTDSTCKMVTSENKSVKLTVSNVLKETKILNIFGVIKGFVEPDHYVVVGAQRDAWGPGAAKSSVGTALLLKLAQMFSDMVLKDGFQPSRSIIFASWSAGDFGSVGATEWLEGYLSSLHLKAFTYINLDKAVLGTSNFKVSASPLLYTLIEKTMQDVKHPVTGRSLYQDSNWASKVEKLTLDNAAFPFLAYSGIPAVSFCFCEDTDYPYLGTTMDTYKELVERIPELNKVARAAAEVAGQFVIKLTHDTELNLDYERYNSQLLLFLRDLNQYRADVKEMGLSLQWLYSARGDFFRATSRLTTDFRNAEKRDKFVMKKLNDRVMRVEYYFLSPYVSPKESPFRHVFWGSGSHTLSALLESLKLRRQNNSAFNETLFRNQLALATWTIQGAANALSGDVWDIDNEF
Assay: ELISA, IgG;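 note: ELISA of IgG-containing supernatants tested in 1:5 serial dilutions for 1 h, bound antibody read out with HRP anti-kappa antibody and TMB substrate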

Binder	EC50 [mg/L]
B2	0.0185
B3	0.0176
B4	0.0226
B5	0.0247
B6	0.0169
B7	0.0287
B8	0.024
B9	0.0162
B10	0.0418
B11	0.0159
B12	0.0178
B13	0.0163
B14	0.0138
B15	0.0137

Each binder was assayed against T2, human TfR extracellular domain with … (assay: SPR, TfR captured by anti-His, Fab injected;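 note: single cycle kinetics with a Fab dilution series, fitted by a one-to-one Langmuir model or a steady state model, KD taken as koff over kon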).

Binder	Kd [µM]	koff [s⁻¹]	kon [M⁻¹ s⁻¹]
B16	0.000255	0.000844	3.32e+06
B17	0.000401	0.000686	1.71e+06
B18	0.00726	0.00466	642000

Biological target: T3, cyno TfR extracellular domain …
Assay: SPR, TfR captured by anti-His, Fab injected;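 note: single cycle kinetics with a Fab dilution series, fitted by a one-to-one Langmuir model or a steady state model, KD taken as koff over kon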

Binder	Kd [µM]	koff [s⁻¹]	kon [M⁻¹ s⁻¹]
B16	0.0019	0.00331	1.74e+06
B17	0.00423	0.00342	808000
B18	0.0416	0.0201	483000

What follows are binders tested against T4, human BACE1 ECD (assay: Octet, pH 7.5;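 note: antibodies captured on anti-human capture biosensor tips, dissociation followed in PBS with BSA buffer, kinetics fitted with a one-to-one binding model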).
T4 construct: analyte of the Octet assay (200 nM) and enzyme of the first short substrate assay; also called human BACE1 extracellular domain
T4 sequence (single chain, as listed by the source limits assumed): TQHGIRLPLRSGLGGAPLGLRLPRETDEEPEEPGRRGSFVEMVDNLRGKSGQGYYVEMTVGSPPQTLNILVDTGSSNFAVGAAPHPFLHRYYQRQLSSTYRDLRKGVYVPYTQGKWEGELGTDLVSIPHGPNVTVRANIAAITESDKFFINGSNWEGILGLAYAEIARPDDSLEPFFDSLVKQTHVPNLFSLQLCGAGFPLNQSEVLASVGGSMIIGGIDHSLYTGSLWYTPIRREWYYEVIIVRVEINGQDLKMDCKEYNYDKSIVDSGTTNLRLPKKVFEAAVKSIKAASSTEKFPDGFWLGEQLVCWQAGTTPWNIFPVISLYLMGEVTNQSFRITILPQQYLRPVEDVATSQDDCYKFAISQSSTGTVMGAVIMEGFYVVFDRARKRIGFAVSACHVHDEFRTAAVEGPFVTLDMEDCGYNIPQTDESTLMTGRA

Binder	Kd [µM]
B19	0.076
B20	0.078
B21	0.059

What follows are binders tested against T5, murine BACE1 ECD (assay: Octet, pH 7.5;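 note: antibodies captured on anti-human capture biosensor tips, dissociation followed in PBS with BSA buffer, kinetics fitted with a one-to-one binding model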).
T5 construct: analyte of the Octet assay (200 nM) and enzyme of the first short substrate assay
T5 sequence (single chain, as listed by the source limits assumed): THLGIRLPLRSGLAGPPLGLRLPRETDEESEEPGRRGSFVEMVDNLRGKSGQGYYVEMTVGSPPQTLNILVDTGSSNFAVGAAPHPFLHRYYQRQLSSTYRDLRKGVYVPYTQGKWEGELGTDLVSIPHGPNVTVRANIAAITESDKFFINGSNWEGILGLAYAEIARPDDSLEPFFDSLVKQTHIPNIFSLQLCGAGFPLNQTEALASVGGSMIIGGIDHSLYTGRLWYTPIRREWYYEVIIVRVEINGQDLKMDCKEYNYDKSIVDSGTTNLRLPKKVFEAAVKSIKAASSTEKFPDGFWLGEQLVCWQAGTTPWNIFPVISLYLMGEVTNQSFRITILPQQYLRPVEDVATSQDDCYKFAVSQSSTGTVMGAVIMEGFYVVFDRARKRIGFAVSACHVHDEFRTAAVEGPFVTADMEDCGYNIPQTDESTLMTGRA

Binder	Kd [µM]
B19	0.048
B20	0.051
B21	0.038

What follows are binders tested against BACE1 in primary mouse cortical neurons (mouse, UniProt P56818 46-501) (assay: cell-based or functional assay).
BACE1 in primary mouse cortical neurons, sequence (P56818 46-501): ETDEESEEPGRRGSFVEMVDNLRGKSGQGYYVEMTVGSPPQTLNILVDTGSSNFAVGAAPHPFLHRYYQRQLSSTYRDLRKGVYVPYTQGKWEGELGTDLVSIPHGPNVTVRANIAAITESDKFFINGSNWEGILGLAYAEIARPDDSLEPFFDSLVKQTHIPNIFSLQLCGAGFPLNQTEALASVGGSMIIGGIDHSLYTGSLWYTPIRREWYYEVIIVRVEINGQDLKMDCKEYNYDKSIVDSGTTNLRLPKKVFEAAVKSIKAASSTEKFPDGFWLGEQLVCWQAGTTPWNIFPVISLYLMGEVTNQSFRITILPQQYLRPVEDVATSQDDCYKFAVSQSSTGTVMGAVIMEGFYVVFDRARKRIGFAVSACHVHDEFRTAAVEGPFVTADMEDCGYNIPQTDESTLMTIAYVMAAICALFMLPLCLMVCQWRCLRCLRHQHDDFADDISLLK

Binder	IC50, Abeta x-40 in mouse cortical neurons [µM]	IC50, Abeta x-40 in mouse cortical neurons (5903*, second run) [µM]	maximal % inhibition of Abeta x-40 [%]
B1	0.00163	0.00727	72
B22	0.00734		72

Biological target: T1, BACE1 (HTRF long substrate and FRET …)
Assay: cell-based or functional assay
Remark: another data set of the same source

Binder	EC50, FRET short substrate [µM]	EC50, HTRF long substrate [µM]
B19	0.0523	0.104
B20	0.00972	0.172
B21	0.0959	0.189

The binders below were run against T4, human BACE1 ECD (assay: Octet, pH 5.0).

Binder	Kd [µM]
B22	0.00034

These binders were tested against T4, human BACE1 ECD (assay: cell-based or functional assay).

Binder	% inhibition of BACE1 activity, short FRET substrate [%]
B19	56
B20	44
B21	63

Each binder was assayed against T5, murine BACE1 ECD (assay: cell-based or functional assay).

Binder	% inhibition of BACE1 activity, short FRET substrate [%]
B19	50
B20	34
B21	60

Biological target: T4, human BACE1 ECD
Assay: Octet, pH 7.5;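 note: antibodies captured on anti-human capture biosensor tips, dissociation followed in PBS with BSA buffer, kinetics fitted with a one-to-one binding model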
Remark: another data set of the same source

Binder	Kd [µM]
B22	0.00035

Biological target: T5, murine BACE1 ECD
Assay: Octet, pH 7.5;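 note: antibodies captured on anti-human capture biosensor tips, dissociation followed in PBS with BSA buffer, kinetics fitted with a one-to-one binding model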
Remark: another data set of the same source

Binder	Kd [µM]
B22	< 0.00024

The binders below were run against T6, human BACE1 (R&D Systems) (human, UniProt P56817) (assay: SPR (Biacore)).
T6 construct: recombinant, commercial (R&D Systems)
T6 sequence (P56817 22-457 limits assumed): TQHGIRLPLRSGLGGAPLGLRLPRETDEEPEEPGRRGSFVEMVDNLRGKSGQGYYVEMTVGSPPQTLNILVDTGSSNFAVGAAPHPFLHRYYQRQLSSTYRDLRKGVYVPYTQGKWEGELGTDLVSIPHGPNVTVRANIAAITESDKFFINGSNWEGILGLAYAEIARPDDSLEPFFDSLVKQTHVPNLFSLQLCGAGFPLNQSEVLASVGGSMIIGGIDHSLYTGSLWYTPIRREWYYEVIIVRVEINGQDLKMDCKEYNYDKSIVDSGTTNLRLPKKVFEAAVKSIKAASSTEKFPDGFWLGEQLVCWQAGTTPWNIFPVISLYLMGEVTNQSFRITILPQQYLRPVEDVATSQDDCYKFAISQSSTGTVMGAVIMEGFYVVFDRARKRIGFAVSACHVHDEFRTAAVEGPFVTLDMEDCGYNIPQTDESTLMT

Binder	Kd [µM]
B19	0.13
B20	0.0818
B21	0.105
